This is an account of results in patent US20240272170A1.

For orientation: koff means a measure of how fast the partners let go of each other. The kon is a measure of how fast the partners come together. Low values mean slow association, high ones fast association. By Kd is commonly meant the concentration at which binding is half-saturated.

For test [1], the target named is EFIAWLV after cleavage to N-terminal leucine (LV). In words: on-chip dynamic sequencing of EFIAWLV, example trace.
Substrate in test [2]: I of … / RLp… (IAYPDDD)
In words: on-chip dynamic sequencing of [..] with PS691, PS610, PS961; one example trace, segment at about 247-277 min, BR=0.27.

The target of test [3] is RLp… after cleavage to N-terminal leucine (Lp…). In words: single-molecule dynamic sequencing on chip.
The target of test [4] is … after cleavage to N-terminal leucine (…). In words: single-molecule dynamic sequencing on chip.
Substrate in test [5]: I of … / RLp… (IAYPDDD)
In words: on-chip dynamic sequencing of RLp[..] with PS691, PS610, PS961; one example trace, segment at about 143-155 min, BR=0.25.

For test [6], the target named is peptide with N-terminal IAA. In words: single-molecule on-chip recognition of immobilized peptide, dye-labeled recognizer.
The target of test [7] is peptide with N-terminal VAA. The test is described as above.
The target of test [8] is peptide with N-terminal LAA. Described as above.
Test [9] deals with … after cleavage to N-terminal leucine (…). The test is described as follows: on-chip dynamic sequencing of [..] with PS691, PS610, PS961; one example trace, segment at about 113-128 min, BR=0.31.
The target in test [10] is EFIAWLVK after cleavage to N-terminal leucine (LVK). In words: on-chip dynamic sequencing of the GLP-1 digest peptide EFIAWLVK, kinetic signature plot.
The target of test [11] is EFIAWLV after cleavage to N-terminal leucine (LV). The test is described as follows: on-chip dynamic sequencing of EFIAWLV, kinetic signature plot.
Test [12] concerns the target RLp… after cleavage to N-terminal leucine (Lp…). The test is described as follows: on-chip dynamic sequencing of RLp[..] with PS691, PS610, PS961; one example trace, segment at about 20-52 min, BR=0.28.
In the next test the target is T1, peptide RLMoFAYPDDD.
T1 sequence (peptide, M3 = methionine sulfoxide (Mo)): RLMFAYPDDD
The test is described as follows: on-chip dynamic sequencing of RLMoFAYPDDD, example trace.

Test [13] has as its target RA Peptide (stopped-flow). In words: stopped-flow rapid kinetics.
The target of test [14] is RL Peptide (stopped-flow). In words: stopped-flow rapid kinetics.
Test [15] addresses HL Peptide (stopped-flow). The test is described as follows: stopped-flow rapid kinetics.
Test [16] has as its target T2, … after cleavage to N-terminal arginine (RLIFAG).
T2 sequence (peptide, C-terminal azidolysine linked to DNA-streptavidin (p-0304)): RLIFAG
The test is described as follows: on-chip dynamic sequencing of …, example trace.

Test [17] deals with T3, synthetic peptide ….
T3 sequence (peptide): RLVFAYPDDD
In words: on-chip dynamic sequencing of …, example trace.

Test [18] addresses T4, synthetic peptide ….
T4 sequence (peptide): RLIFAYPDDD
In words: on-chip dynamic sequencing of …, example trace. This is another data set of the same source.

Test [19] has as its target T5, synthetic peptide ….
T5 sequence (peptide): RLAFSALGAADDD
The test is described as follows: on-chip dynamic sequencing of …, example trace. The source holds these as a separate data set.

For test [20], the target named is T6, synthetic peptide ….
T6 sequence (peptide): RLMFAYPDDD
The test is described as follows: on-chip dynamic sequencing of …, example trace. This is another data set of the same source.

For test [21], the target named is T7, … after cleavage to N-terminal arginine (…).
T7 sequence (peptide): RLAASFAAQQYPDDD
In words: on-chip dynamic sequencing of …, example trace.

Test [22] deals with T8, synthetic peptide ….
T8 sequence (peptide): RLAFAYPDDD
In words: on-chip dynamic sequencing of …, example trace. The source holds these as a separate data set.

The target in test [23] is peptide …. In words: single-molecule dynamic sequencing on chip.
Test [24] addresses peptide RLp…. The test is described as follows: single-molecule dynamic sequencing on chip.
Test [25] concerns the target T2, … after cleavage to N-terminal arginine (RLIFAG). The test is described as follows: on-chip dynamic sequencing of …, upper trace.
Test [26] addresses T9, RA peptide (X…-FITC, X = R).
T9 sequence (peptide, FITC on the C-terminal Lys): RAKLDEESILKQK
In words: fluorescence polarization titration, recognizer 0-3000 nM, labeled peptide fixed. In general terms: Fluorescence polarisation rises when a labelled molecule tumbles more slowly, as on binding a larger partner.

The target is the same in test [27]. In words: fluorescence polarization titration, PS691 0-3000 nM.
The target of test [28] is peptide with N-terminal RLA. The test is described as follows: single-molecule on-chip recognition of immobilized peptide, dye-labeled recognizer.
The target of test [29] is peptide …. The test is described as follows: on-chip dynamic sequencing of [..] with PS691, PS610, PS961; one example trace, segment at about 107-113 min, BR=0.46.
Test [30] has as its target T2, … after cleavage to N-terminal arginine (RLIFAG). The test is described as follows: on-chip dynamic sequencing of a mixture of … and … on one chip, signature of ….
Test [31] addresses T5, synthetic peptide …. The test is described as above.
The target of another test is T10, QP304-RAIFAG peptide.
T10 sequence (peptide): RAIFAG
The test is described as follows: single-molecule on-chip recognition run.

In test [32] the target is T2, … after cleavage to N-terminal arginine (RLIFAG). In words: on-chip dynamic sequencing of …, lower trace.
For test [33] the target is unchanged. In words: on-chip dynamic sequencing of …, kinetic signature plot.
Test [34] addresses T3, synthetic peptide …. The test is described as above.
Test [35] concerns the target T4, synthetic peptide …. The description is as above. The source holds these as a separate data set.
The target of test [36] is T5, synthetic peptide …. Described as above. The source holds these as a separate data set.
The target of test [37] is T7, … after cleavage to N-terminal arginine (…). Described as above.
The target in test [38] is T8, synthetic peptide …. The test is described as above. This is another data set of the same source.
For test [39], the target named is T11, … after cleavage to N-terminal arginine (RLIFAGK).
T11 sequence (peptide): RLIFAGK
The test is described as follows: on-chip dynamic sequencing of the ubiquitin digest peptide …, kinetic signature plot.

Test [40] addresses peptide RLp…. The test is described as follows: on-chip dynamic sequencing of RLp[..] with PS691, PS610, PS961; one example trace, segment at about 3-18 min, BR=0.43.

B1: PS961 (designed binder)
chain: MPTAASATESAIEDTPAPARPEVDGRTKPKRQPRYHVVLWDDDDHTYQYVVVMLRSLFGHPPSRGYRMAKEMDTQGRVIVLTTTREHAELKRDQIHAFGRDRLLARSKGSMKASIEAEE
In test [1], B1 showed a PD printed above the recognition segment (one trace) of 5.92 s. The PW (pulse width of the segment in the example trace) in [2] stood at 0.2; in test [5] it was 0.24; in [9] it was 2.93; in test [12], 3.57. In addition, the RS mean pulse duration (PD) was 3.4 s in [3] and 2.45 s in test [4]. Moreover, the median pulse duration (PD) in [6] amounted to 0.28 s; in test [7] it was 0.21 s; in test [8] it was 1.21 s. Also, the median PD (kinetic signature) in test [10] amounted to 2.99 s; in test [11], 5.3 s.

B2: PS691 (designed binder, from a related filing)
chain: MHSKFSHAGRICGAKFKVGEPIYRCKECSFDDTCVLCVNCFNPKDHTGHHVYTTICTEFNNGICDCGDKEAWNHTLFCKAEEGGSAGSAAGSGEFMHSKFSHAGRICGAKFKVGEPIYRCKECSFDDTCVLCVNCFNPKDHTGHHVYTTICTEFNNGICDCGDKEAWNHTLFCKAEEGGGSHHHHHHHHHHGGGSGGGSGGGSGLNDFFEAQKIEWHEGGGSGGGSGGGSGLNDFFEAQKIEWHE
As to B2, the PD printed above the recognition segment (one trace) in the test with peptide RLMoFAYPDDD came out at 0.25 s; in [16], 0.29 s; in [17], 0.27 s; in test [18], 0.29 s; in test [19], 0.17 s; in [20] it was 0.27 s. Also, the PD printed above the recognition segment (one trace) turned out to be 0.17 s in [21], 0.25 s in test [22], 0.21 s in test [25] and 0.34 s in test [32]. Also, the koff in test [13] turned out to be 69.4 s⁻¹; in [14], 19.7 s⁻¹; in test [15], 51.4 s⁻¹. Further, in test [13], the kon amounted to 2.6e+07 M⁻¹ s⁻¹. The RS mean pulse duration (PD) is 0.9 s in test [23] and 0.45 s in [24]. For the same molecule, the Kd in [26] and in test [27] was 369 nM each time. In [28], the median pulse duration (PD) amounted to 0.23 s. Besides, the PW (pulse width of the segment in the example trace) in [29] worked out at 0.9; in test [40] it was 0.54. For the same molecule, the median PD (kinetic signature) in test [30] came out at 0.26 s; in test [31] it was 0.21 s; in [33], 0.24 s; in test [34], 0.27 s; in [35], 0.29 s; in [36], 0.19 s. The median PD (kinetic signature) turned out to be 0.17 s in [37], 0.22 s in [38] and 0.31 s in [39]. Moreover, the pulse duration in the test with QP304-RAIFAG peptide came to 0.16 s.
